Bridge positions count the residues as written; N and C are the ends. Square brackets hold non-standard residues; d marks the D form. Ends that are not written are not given here. 2Nal = N[C@@H](Cc1ccc2ccccc2c1)C(=O)O; Cha = N[C@@H](CC1CCCCC1)C(=O)O; Pen = CC(C)(S)[C@H](N)C(=O)O; Nle = CCCC[C@H](N)C(=O)O; Ahx = NCCCCCC(=O)O; Ava = NCCCCC(=O)O; GABA = NCCCC(=O)O
What was measured:
[1] = biological target: T1, hMC1-R (human, UniProt Q01726 1-317); experiment: competition with [125I]-NDP-α-MSH, CHO-K1 membranes
T1 construct: whole, on cells; Assayed as membranes of CHO-K1 cells expressing the receptor; also called hMC-R receptor subtype 1; melanocyte-specific receptor (MC1-R)

[2] = biological target: T2, hMC3-R (human, UniProt P41968 1-323); experiment: as above
T2 construct: whole, on cells; Assayed as membranes of CHO-K1 cells expressing the receptor; also called hMC-R receptor subtype 3; melacortin-3 (MC3-R)

[3] = biological target: T3, hMC5-R (human, UniProt P33032 1-325); experiment: as above
T3 construct: whole, on cells; Assayed as membranes of CHO-K1 cells expressing the receptor; also called hMC-R receptor subtype 5; melanocortin-5 receptor (MC5-R)

[4] = biological target: T4, hMC4-R (human, UniProt P32245 1-332); experiment: as above
T4 construct: whole, on cells; Assayed as membranes of CHO-K1 cells expressing the receptor; also called hMC-R receptor subtype 4; melanocortin-4 (MC4-R)

[5] = biological target: T1, hMC1-R; experiment: ratio Ki hMC1-R / Ki hMC4-R, same assay
Description: Cellular membranes used for the in vitro receptor binding assays were obtained from transgenic CHO-K1 cells stably expressing hMC-R receptor subtypes 1, 3, 4 or 5. […] The pellets were resuspended in the same buffer and centrifuged at 50,000 g for 10 minutes at approximately 4° C. The washed pellets containing the cellular membranes were stored at approximately −80° C.
Competitive inhibition of [¹²⁵I](Tyr²)-(Nle⁴-D-Phe⁷)α-MSH ([¹²⁵I]-NDP-α-MSH, Amersham Biosciences®) binding was carried out in polypropylene 96 well plates. Cell membranes (1-10 μg protein/well) prepared as described above were incubated in 50 mM Tris-HCl at pH 7.4 containing 0.2% bovine serum albumin (BSA), 5 mM MgCl₂, 1 mM CaCl₂ and 0.1 mg/mL bacitracin, with increasing concentrations of the test compound and 0.1-0.3 nM […] for approximately 90-120 minutes at approximately 37° C. Bound [¹²⁵I]-NDP-α-MSH ligand was separated from free [¹²⁵I]-NDP-α-MSH by filtration through GF/C glass fiber filter plates (Unifilter®; Packard) presoaked with 0.1% (w/v) polyethylenimine (PEI), using a Packard Filtermate® harvester. Filters were washed three times with 50 mM Tris-HCl at pH 7.4 at a temperature of approximately 0-4° C. and then assayed for radioactivity using a Packard Topcount® scintillation counter. Binding data were analyzed by computer-assisted non-linear regression analysis (XL fit; IDBS).

T3 sequence (P33032 whole entry): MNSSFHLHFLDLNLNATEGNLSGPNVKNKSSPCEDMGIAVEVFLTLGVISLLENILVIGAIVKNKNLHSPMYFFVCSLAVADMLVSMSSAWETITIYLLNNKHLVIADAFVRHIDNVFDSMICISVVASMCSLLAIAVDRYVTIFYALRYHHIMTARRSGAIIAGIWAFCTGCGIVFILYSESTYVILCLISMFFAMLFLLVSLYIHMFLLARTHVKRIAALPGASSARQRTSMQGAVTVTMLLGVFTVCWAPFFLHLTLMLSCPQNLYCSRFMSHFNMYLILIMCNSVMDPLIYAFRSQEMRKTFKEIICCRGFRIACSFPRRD
T2 sequence (P41968 whole entry): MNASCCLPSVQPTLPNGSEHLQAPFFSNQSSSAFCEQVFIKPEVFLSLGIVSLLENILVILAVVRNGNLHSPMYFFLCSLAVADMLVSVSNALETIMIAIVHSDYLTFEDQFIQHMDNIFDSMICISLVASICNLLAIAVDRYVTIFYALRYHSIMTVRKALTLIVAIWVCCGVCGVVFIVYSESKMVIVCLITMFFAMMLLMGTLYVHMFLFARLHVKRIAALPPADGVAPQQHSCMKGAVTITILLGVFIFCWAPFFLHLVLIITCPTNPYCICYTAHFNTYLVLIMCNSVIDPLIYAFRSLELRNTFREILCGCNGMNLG
T1 sequence (Q01726 whole entry): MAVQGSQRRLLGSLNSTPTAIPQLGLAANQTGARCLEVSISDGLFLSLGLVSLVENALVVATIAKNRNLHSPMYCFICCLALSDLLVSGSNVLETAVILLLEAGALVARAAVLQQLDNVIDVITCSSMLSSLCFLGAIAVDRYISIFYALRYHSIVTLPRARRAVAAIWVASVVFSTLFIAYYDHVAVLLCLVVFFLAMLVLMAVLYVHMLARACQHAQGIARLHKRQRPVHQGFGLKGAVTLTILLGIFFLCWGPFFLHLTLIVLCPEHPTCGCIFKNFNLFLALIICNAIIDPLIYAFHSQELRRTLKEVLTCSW
T4 sequence (P32245 whole entry): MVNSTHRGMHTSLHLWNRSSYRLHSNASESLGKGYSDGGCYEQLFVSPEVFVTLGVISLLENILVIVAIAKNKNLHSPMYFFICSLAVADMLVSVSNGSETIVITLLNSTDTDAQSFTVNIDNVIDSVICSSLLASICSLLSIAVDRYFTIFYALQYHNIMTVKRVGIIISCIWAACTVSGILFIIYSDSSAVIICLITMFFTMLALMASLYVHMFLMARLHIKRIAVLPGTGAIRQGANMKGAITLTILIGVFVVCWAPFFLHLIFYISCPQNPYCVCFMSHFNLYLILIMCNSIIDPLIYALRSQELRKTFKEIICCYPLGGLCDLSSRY

Row | Binder | Ki [1] [nM] | Ki [2] [nM] | Ki [3] [nM] | Ki [4] [nM] | Ki hMC1-R/MC4-R [5]
1 | Ac-CEH[dF]RWAC-NH2 (disulfide 1-8; SMILES CC(=O)N[C@H]1CSSC[C@@H](C(N)=O)NC(=O)[C@H](C)NC(=O)[C@H](Cc2c[nH]c3ccccc23)NC(=O)[C@H](CCCNC(=N)N)NC(=O)[C@@H](Cc2ccccc2)NC(=O)[C@H](Cc2c[nH]cn2)NC(=O)[C@H](CCC(=O)O)NC1=O) [Ac-c(Cys-Glu-His-D-Phe-Arg-Trp-Ala-Cys)-NH2] | 111 | 1710 | 694 | 47.7 | 2.33
2 | Ac-C[dA]H[dF]R[2Nal]AC-NH2 (disulfide 1-8; SMILES CC(=O)N[C@H]1CSSC[C@@H](C(N)=O)NC(=O)[C@H](C)NC(=O)[C@H](Cc2ccc3ccccc3c2)NC(=O)[C@H](CCCNC(=N)N)NC(=O)[C@@H](Cc2ccccc2)NC(=O)[C@H](Cc2c[nH]cn2)NC(=O)[C@@H](C)NC1=O) [Ac-c(Cys-D-Ala-His-D-Phe-Arg-2-Nal-Ala-Cys)-NH2] | 132 | 4560 | 8810 | 40.7 | 3.24
3 | Ac-RCH[dF]RW[GABA][Pen]-NH2 (disulfide 2-8; SMILES CC(=O)N[C@@H](CCCNC(=N)N)C(=O)N[C@H]1CSSC(C)(C)[C@@H](C(N)=O)NC(=O)CCCNC(=O)[C@H](Cc2c[nH]c3ccccc23)NC(=O)[C@H](CCCNC(=N)N)NC(=O)[C@@H](Cc2ccccc2)NC(=O)[C@H](Cc2c[nH]cn2)NC1=O) [Ac-Arg-c(Cys-His-D-Phe-Arg-Trp-Gaba-Pen)-NH2] | 1.81 | 20.5 | 502 | 4.57 | 0.4
4 | Ac-[Nle]C[dL]H[dF]RWC-NH2 (disulfide 2-8; SMILES CCCC[C@H](NC(C)=O)C(=O)N[C@H]1CSSC[C@@H](C(N)=O)NC(=O)[C@H](Cc2c[nH]c3ccccc23)NC(=O)[C@H](CCCNC(=N)N)NC(=O)[C@@H](Cc2ccccc2)NC(=O)[C@H](Cc2c[nH]cn2)NC(=O)[C@@H](CC(C)C)NC1=O) [Ac-Nle-c(Cys-D-Leu-His-D-Phe-Arg-Trp-Cys)-NH2] | 1.6 | 6.82 | 5.57 | 4.13 | 0.39
5 | Ac-[Nle][Pen]H[dF]RW[GABA][Pen]-NH2 (disulfide 2-8) [Ac-Nle-c(Pen-His-D-Phe-Arg-Trp-Gaba-Pen)-NH2] | 0.744 | 178 | 2.69 | 3.51 | 0.21
6 | Ac-ICH[dF]RW[GABA]C-NH2 (disulfide 2-8; SMILES CC[C@H](C)[C@H](NC(C)=O)C(=O)N[C@H]1CSSC[C@@H](C(N)=O)NC(=O)CCCNC(=O)[C@H](Cc2c[nH]c3ccccc23)NC(=O)[C@H](CCCNC(=N)N)NC(=O)[C@@H](Cc2ccccc2)NC(=O)[C@H](Cc2c[nH]cn2)NC1=O) [Ac-Ile-c(Cys-His-D-Phe-Arg-Trp-Gaba-Cys)-NH2] | 0.148 | 13.9 | 0.423 | 1.06 | 0.14
7 | Ac-LCH[dF]RW[GABA]C-NH2 (disulfide 2-8) [Ac-Leu-c(Cys-His-D-Phe-Arg-Trp-Gaba-Cys)-NH2] | 0.216 | 17.4 | 0.486 | 0.995 | 0.22
8 | Ac-VCH[dF]RW[GABA]C-NH2 (disulfide 2-8; SMILES CC(=O)N[C@H](C(=O)N[C@H]1CSSC[C@@H](C(N)=O)NC(=O)CCCNC(=O)[C@H](Cc2c[nH]c3ccccc23)NC(=O)[C@H](CCCNC(=N)N)NC(=O)[C@@H](Cc2ccccc2)NC(=O)[C@H](Cc2c[nH]cn2)NC1=O)C(C)C) [Ac-Val-c(Cys-His-D-Phe-Arg-Trp-Gaba-Cys)-NH2] | 0.256 | 29.9 | 0.864 | 1.98 | 0.13
9 | Ac-[Cha]CH[dF]RW[GABA]C-NH2 (disulfide 2-8) [Ac-Cha-c(Cys-His-D-Phe-Arg-Trp-Gaba-Cys)-NH2] | 0.107 | 9.11 | 0.354 | 0.884 | 0.12
10 | Ac-[2Nal]CH[dF]RW[GABA]C-NH2 (disulfide 2-8) [Ac-2-Nal-c(Cys-His-D-Phe-Arg-Trp-Gaba-Cys)-NH2] | 0.56 | 39.2 | 2.73 | 2.94 | 0.19
11 | Ac-[Nle]CHFR[dW][GABA]C-NH2 (disulfide 2-8, Phe 4 is the L form here) [Ac-Nle-c(Cys-His-Phe-Arg-D-Trp-Gaba-Cys)-NH2] | 5.2 | 150 | 20.3 | 138 | 0.04
12 | [Nle]CH[dF]RW[Ava]C-NH2 (disulfide 2-8; N-terminus assumed; SMILES CCCC[C@H](N)C(=O)N[C@H]1CSSC[C@@H](C(N)=O)NC(=O)CCCCNC(=O)[C@H](Cc2c[nH]c3ccccc23)NC(=O)[C@H](CCCNC(=N)N)NC(=O)[C@@H](Cc2ccccc2)NC(=O)[C@H](Cc2c[nH]cn2)NC1=O) [Nle-c(Cys-His-D-Phe-Arg-Trp-Apn-Cys)-NH2] | 0.07 | 4.1 | 8.8 | 0.85 | 0.1
13 | Ac-[Nle]CH[dF]RW[GABA][Pen]-NH2 (disulfide 2-8) [Ac-Nle-c(Cys-His-D-Phe-Arg-Trp-Gaba-Pen)-NH2] | 0.12 | 10 | 0.42 | 0.43 | 0.3
14 | [Nle]CH[dF]RW[GABA]C-NH2 (disulfide 2-8) [Nle-c(Cys-His-D-Phe-Arg-Trp-Gaba-Cys)-NH2] | 0.05 | 1.3 | 0.2 | 0.47 | 0.1
15 | Ac-[Nle]CH[dF]RW[Ahx]C-NH2 (disulfide 2-8) [Ac-Nle-c(Cys-His-D-Phe-Arg-Trp-Ahx-Cys)-NH2] | 0.0132 | 16.1 | 0.359 | 1.23 | 0.11
16 | Ac-[Nle]CH[dF]RW[Ava]C-NH2 (disulfide 2-8; SMILES CCCC[C@H](NC(C)=O)C(=O)N[C@H]1CSSC[C@@H](C(N)=O)NC(=O)CCCCNC(=O)[C@H](Cc2c[nH]c3ccccc23)NC(=O)[C@H](CCCNC(=N)N)NC(=O)[C@@H](Cc2ccccc2)NC(=O)[C@H](Cc2c[nH]cn2)NC1=O) [Ac-Nle-c(Cys-His-D-Phe-Arg-Trp-Apn-Cys)-NH2] | 0.0951 | 9.33 | 13.4 | 0.894 | 0.11

Source: US20120135923A1 (IPSEN PHARMA S A S, published 2012)
